{"source": "patent US8063008B2", "about": "“Enzymatic production of peracids using perhydrolytic enzymes” (E. I. du Pont de Nemours and Company, priority 2005, dated 2011)", "molecules": {"B1": {"name": "Proteinase K, T. album: Proteinase K, T. album, Novagen 70663; a fungal subtilisin from Tritirachium album (protein, UniProt P06873 106-384, looked up)", "Proteinase K": "AAQTNAPWGLARISSTSPGTSTYYYDESAGQGSCVYVIDTGIEASHPEFEGRAQMVKTYYYSSRDGNGHGTHCAGTVGSRTYGVAKKTQLFGVKVLDDNGSGQYSTIIAGMDFVASDKNNRNCPKGVVASLSLGGGYSSSVNSAAARLQSSGVMVAVAAGNNNADARNYSPASEPSVCTVGASDRYDRRSSFSNYGSVLDIFGPGTSILSTWIGGSTRSISGTSMATPHVAGLAAYLMTLGKTTAASACRYIADTANKGDLSNIPFGTVNLLAYNNYQA"}, "B2": {"name": "Alcalase ®: Novozymes; subtilisin Carlsberg or subtilisin A from Bacillus licheniformis (protein, UniProt P00780 106-379, looked up)", "Subtilisin Carlsberg": "AQTVPYGIPLIKADKVQAQGFKGANVKVAVLDTGIQASHPDLNVVGGASFVAGEAYNTDGNGHGTHVAGTVAALDNTTGVLGVAPSVSLYAVKVLNSSGSGSYSGIVSGIEWATTNGMDVINMSLGGASGSTAMKQAVDNAYAKGVVVVAAAGNSGSSGNTNTIGYPAKYDSVIAVGAVDSNSNRASFSSVGAELEVMAPGAGVYSTYPTNTYATLNGTSMASPHVAGAAALILSKHPNLSASQVRNRLSSTATYLGSSFYYGKGLINVEAAAQ"}, "B3": {"name": "Papain: Papain, papaya latex, Sigma P3125 (protein, UniProt P00784 134-345, looked up)", "Papain": "IPEYVDWRQKGAVTPVKNQGSCGSCWAFSAVVTIEGIIKIRTGNLNEYSEQELLDCDRRSYGCNGGYPWSALQLVAQYGIHYRNTYPYEGVQRYCRSREKGPYAAKTDGVRQVQPYNEGALLYSIANQPVSVVLEAAGKDFQLYRGGIFVGPCGNKVDHAVAAVGYGPNYILIKNSWGTGWGENGYIRIKRGTGNSYGVCGLYTSSFYPVKN"}}, "type_in_all_cases": "biochemical", "key": {"[1]": {"test": "Protease-catalyzed perhydrolysis of acetamide at pH 4.0 (Example 6)", "conditions": "pH 4.0, 500 mM H2O2, 1 mg protease", "protocol": "(§1) Into a 4-mL glass vial with stir bar was added 1 mg protease (Table 6) in 0.050 mL of 50 mM sodium acetate/acetic acid buffer (pH 4.0), 0.900 mL of an aqueous mixture containing either a) acetamide (278 mM) in 50 mM sodium acetate/acetic acid buffer (pH 4.0) or b) diacetamide (278 mM) in 50 mM sodium acetate/acetic acid buffer (pH 4.0), and 0.052 mL 30% hydrogen peroxide (500 mM final concentration). […] A portion of the filtered reaction samples was diluted 1:10 with dd water and analyzed for hydrogen peroxide, and the remaining portion of the sample was directly analyzed for peracid using the HPLC assay method (Table 7)."}, "[2]": {"test": "Protease-catalyzed perhydrolysis of acetamide at pH 6.5 (Example 9)", "conditions": "pH 6.5, 500 mM H2O2, 1 mg protease", "protocol": "as §1, with “potassium phosphate” for “sodium acetate/acetic acid”, “6.5),” for “4.0),”, “6.5)” for “4.0)”, “10).” for “7).”"}, "[3]": {"test": "Protease-catalyzed perhydrolysis of diacetamide at pH 6.5 (Example 9)", "conditions": "pH 6.5, 500 mM H2O2, 1 mg protease", "protocol": "as §1, with “potassium phosphate” for “sodium acetate/acetic acid”, “6.5),” for “4.0),”, “6.5)” for “4.0)”, “10).” for “7).”"}, "[4]": {"test": "Enzymatic perhydrolysis of triacetin using a combination of lipase and proteases (Proteinase K, Pronase) at pH 4.0 and 6.5 (Example 10)", "conditions": "H2O2 500 mM, 1 mg lipase, 0.3 mg Proteinase K, 1.2 mg Pronase", "protocol": "Reaction mixtures were prepared containing 1 mg lipase (ICR 101, ICR-110, or ICR-117, BioCatalytics, Pasadena, Calif.), 0.3 mg Proteinase K (T. album), and 1.2 mg of Pronase in 1.0 mL of 50 mM buffer (either sodium acetate/acetic acid buffer at pH 4.0, or potassium phosphate buffer at pH 6.5), additionally containing triacetin (250 mM) and hydrogen peroxide (500 mM). […] A portion of the filtered reaction samples was diluted 1:10 with dd water and analyzed for hydrogen peroxide, and the remaining portion of the sample was directly analyzed for peracid using the HPLC assay method (Table 11). Reactions were also run with lipase alone or protease(s) alone for comparison of peracetic acid concentrations produced without the combination of lipase and protease(s)."}, "[5]": {"test": "Enzymatic perhydrolysis of triacetin using a combination of lipase and Alcalase at pH 4.0 and 6.5 (Example 22)", "conditions": "H2O2 500 mM, 1 mg lipase, 20 μL Alcalase", "protocol": "Reaction mixtures were prepared containing 1 mg lipase (A “Amano” 12 (Amano), Validase AN (Valley Research), or ICR-110 (BioCatalytics)), and 20 μL Alcalase® (Novozymes) in 1.0 mL of 50 mM buffer (either sodium acetate/acetic acid buffer at pH 4.0, or potassium phosphate buffer at pH 6.5), additionally containing triacetin (250 mM) and hydrogen peroxide (500 mM). […] A portion of the filtered reaction samples was diluted 1:10 with dd water and analyzed for hydrogen peroxide, and the remaining portion of the sample was directly analyzed for peracid using the HPLC assay method (Table 27). Reactions were also run with lipase alone or Alcalase® alone for comparison of peracetic acid concentrations produced without the combination of lipase and Alcalase®."}, "[6]": {"test": "Enzymatic perhydrolysis of a mixture of diacetin (250 mM), triacetin (88 mM) and monoacetin (192 mM) using lipase and Alcalase at pH 4.0 and 6.5 (Example 23)", "conditions": "1 mg lipase, 20 μL Alcalase", "protocol": "Reaction mixtures were prepared containing 1 mg lipase (A “Amano” 12 (Amano), Validase AN (Valley Research), or ICR-110 (BioCatalytics)), and 20 μL Alcalase® (Novozymes) in 1.0 mL of 50 mM buffer (either sodium acetate/acetic acid buffer at pH 4.0, or potassium phosphate buffer at pH 6.5), additionally containing a mixture of diacetin (250 mM), triacetin (88 mM) and monoacetin (192 mM) and hydrogen peroxide (500 mM). […] A portion of the filtered reaction samples was diluted 1:10 with dd water and analyzed for hydrogen peroxide, and the remaining portion of the sample was directly analyzed for peracid using the HPLC assay method (Table 28). Reactions were also run with lipase alone or Alcalase® alone for comparison of peracetic acid concentrations produced without the combination of lipase and Alcalase®."}, "[7]": {"test": "Protease-catalyzed perhydrolysis of diacetamide at pH 4.0 (Example 6)", "conditions": "pH 4.0, 500 mM H2O2, 1 mg protease", "protocol": "as §1"}, "[8]": {"test": "Protease-catalyzed perhydrolysis of triacetin at pH 4.0 (Example 7)", "conditions": "pH 4.0, 500 mM H2O2, 1 mg protease", "protocol": "as §1, with “triacetin” for “either a) acetamide (278 mM) in 50 mM sodium acetate/acetic acid buffer (pH 4.0) or b) diacetamide”, “8).” for “7).”"}, "[9]": {"test": "Protease-catalyzed perhydrolysis of triacetin at pH 6.5 (Example 8)", "conditions": "pH 6.5, 500 mM H2O2, 1 mg protease", "protocol": "The analytical procedure described by U. Karst et al. (Anal. Chem., 69 (17):3623-3627 (1997)) was employed, as described herein, for analysis of product mixtures containing peracid and hydrogen peroxide. Briefly, the concentration of peracetic acid (PAA) in analyzed samples ranged from 0.025 mM-10 mM, and the concentration of H2O2 ranged from 0.075 mM-3 mM. Reaction mixtures containing peracid and/or hydrogen peroxide were, if necessary prior to analysis, diluted to produce a concentration of peracid or peroxide in these ranges. […] At the end of 30 minutes, 0.100 mL of 10 mM N,N-diethyl-m-toluamide (DEET, HPLC external standard) was added and the resulting solution analyzed by HPLC: Supelco Discovery C8 10-cm column with pre-column, 10-μL injection, UV detection at 225 nm, solvent A: acetonitrile, solvent B: deionized water, 1 mL/min gradient as follows: […]\nInto a 4-mL glass vial with stir bar was added 1 mg protease (Table 6) in 0.050 mL of 50 mM sodium phosphate buffer (pH 6.5), 0.900 mL of an aqueous mixture containing triacetin (278 mM) in 50 mM phosphate buffer (pH 6.5), and 0.052 mL 30% hydrogen peroxide (500 mM final concentration). […] A portion of the filtered reaction samples was diluted 1:10 with dd water and analyzed for hydrogen peroxide, and the remaining portion of the sample was directly analyzed for peracid using the HPLC assay method (Table 9)."}}}
{"molecule": "B1", "values": [{"measurement": "acetamide (250 mM) peracetic acid (ppm), 5 min", "setting": "[1]", "result": 34, "unit": "ppm"}, {"measurement": "acetamide (250 mM) peracetic acid (ppm), 30 min", "setting": "[1]", "result": 49, "unit": "ppm"}, {"measurement": "acetamide (250 mM) peracetic acid (ppm), 5 min", "setting": "[2]", "result": 270, "unit": "ppm"}, {"measurement": "acetamide (250 mM) peracetic acid (ppm), 30 min", "setting": "[2]", "result": 214, "unit": "ppm"}, {"measurement": "diacetamide (250 mM) peracetic acid (ppm), 5 min", "setting": "[3]", "result": 104, "unit": "ppm"}, {"measurement": "diacetamide (250 mM) peracetic acid (ppm), 30 min", "setting": "[3]", "result": 100, "unit": "ppm"}, {"measurement": "peracetic acid (ppm), 5 min", "setting": "[4]; pH 4.0, triacetin 250 mM", "result": 24, "unit": "ppm"}, {"measurement": "peracetic acid (ppm), 30 min", "setting": "[4]; pH 4.0, triacetin 250 mM", "result": 7, "unit": "ppm"}, {"measurement": "peracetic acid (ppm), 5 min", "setting": "[4]; pH 6.5, triacetin 250 mM", "result": 323, "unit": "ppm"}, {"measurement": "peracetic acid (ppm), 30 min", "setting": "[4]; pH 6.5, triacetin 250 mM", "result": 669, "unit": "ppm"}]}
{"molecule": "B2", "values": [{"measurement": "peracetic acid (ppm), 5 min", "setting": "[5]; pH 4.0, triacetin 250 mM", "result": 0, "unit": "ppm"}, {"measurement": "peracetic acid (ppm), 30 min", "setting": "[5]; pH 4.0, triacetin 250 mM", "result": 0, "unit": "ppm"}, {"measurement": "peracetic acid (ppm), 5 min", "setting": "[5]; pH 6.5, triacetin 250 mM", "result": 180, "unit": "ppm"}, {"measurement": "peracetic acid (ppm), 30 min", "setting": "[5]; pH 6.5, triacetin 250 mM", "result": 330, "unit": "ppm"}, {"measurement": "peracetic acid (ppm), 5 min", "setting": "[6]; pH 4.0, H2O2 500 mM", "result": 0, "unit": "ppm"}, {"measurement": "peracetic acid (ppm), 30 min", "setting": "[6]; pH 4.0, H2O2 500 mM", "result": 20, "unit": "ppm"}, {"measurement": "peracetic acid (ppm), 5 min", "setting": "[6]; pH 6.5, H2O2 500 mM", "result": 110, "unit": "ppm"}, {"measurement": "peracetic acid (ppm), 30 min", "setting": "[6]; pH 6.5, H2O2 500 mM", "result": 210, "unit": "ppm"}]}
{"molecule": "B3", "values": [{"measurement": "acetamide (250 mM) peracetic acid (ppm), 5 min", "setting": "[1]", "result": 81, "unit": "ppm"}, {"measurement": "acetamide (250 mM) peracetic acid (ppm), 30 min", "setting": "[1]", "result": 105, "unit": "ppm"}, {"measurement": "diacetamide (250 mM) peracetic acid (ppm), 5 min", "setting": "[7]; 5 min", "result": 135, "unit": "ppm"}, {"measurement": "diacetamide (250 mM) peracetic acid (ppm), 30 min", "setting": "[7]; 30 min", "result": 172, "unit": "ppm"}, {"measurement": "triacetin (250 mM) peracetic acid (ppm), 5 min", "setting": "[8]; 5 min", "result": 85, "unit": "ppm"}, {"measurement": "triacetin (250 mM) peracetic acid (ppm), 30 min", "setting": "[8]; 30 min", "result": 48, "unit": "ppm"}, {"measurement": "triacetin (250 mM) peracetic acid (ppm), 5 min", "setting": "[9]; 5 min", "result": 203, "unit": "ppm"}, {"measurement": "triacetin (250 mM) peracetic acid (ppm), 30 min", "setting": "[9]; 30 min", "result": 142, "unit": "ppm"}, {"measurement": "acetamide (250 mM) peracetic acid (ppm), 5 min", "setting": "[2]", "result": 199, "unit": "ppm"}, {"measurement": "acetamide (250 mM) peracetic acid (ppm), 30 min", "setting": "[2]", "result": 157, "unit": "ppm"}, {"measurement": "diacetamide (250 mM) peracetic acid (ppm), 5 min", "setting": "[3]", "result": 342, "unit": "ppm"}, {"measurement": "diacetamide (250 mM) peracetic acid (ppm), 30 min", "setting": "[3]", "result": 187, "unit": "ppm"}]}
